From US7838231 (REGENTS OF THE UNIVERSITY OF MICHIGAN, dated 2010)

Experiments:
[1] = target: T1, NPHP4, human full length, yeast two-hybrid prey (human, UniProt O75161 1-1426); test: direct yeast two-hybrid assay
T1 construct: also called nephroretinin; nephrocystin-4
T1 sequence: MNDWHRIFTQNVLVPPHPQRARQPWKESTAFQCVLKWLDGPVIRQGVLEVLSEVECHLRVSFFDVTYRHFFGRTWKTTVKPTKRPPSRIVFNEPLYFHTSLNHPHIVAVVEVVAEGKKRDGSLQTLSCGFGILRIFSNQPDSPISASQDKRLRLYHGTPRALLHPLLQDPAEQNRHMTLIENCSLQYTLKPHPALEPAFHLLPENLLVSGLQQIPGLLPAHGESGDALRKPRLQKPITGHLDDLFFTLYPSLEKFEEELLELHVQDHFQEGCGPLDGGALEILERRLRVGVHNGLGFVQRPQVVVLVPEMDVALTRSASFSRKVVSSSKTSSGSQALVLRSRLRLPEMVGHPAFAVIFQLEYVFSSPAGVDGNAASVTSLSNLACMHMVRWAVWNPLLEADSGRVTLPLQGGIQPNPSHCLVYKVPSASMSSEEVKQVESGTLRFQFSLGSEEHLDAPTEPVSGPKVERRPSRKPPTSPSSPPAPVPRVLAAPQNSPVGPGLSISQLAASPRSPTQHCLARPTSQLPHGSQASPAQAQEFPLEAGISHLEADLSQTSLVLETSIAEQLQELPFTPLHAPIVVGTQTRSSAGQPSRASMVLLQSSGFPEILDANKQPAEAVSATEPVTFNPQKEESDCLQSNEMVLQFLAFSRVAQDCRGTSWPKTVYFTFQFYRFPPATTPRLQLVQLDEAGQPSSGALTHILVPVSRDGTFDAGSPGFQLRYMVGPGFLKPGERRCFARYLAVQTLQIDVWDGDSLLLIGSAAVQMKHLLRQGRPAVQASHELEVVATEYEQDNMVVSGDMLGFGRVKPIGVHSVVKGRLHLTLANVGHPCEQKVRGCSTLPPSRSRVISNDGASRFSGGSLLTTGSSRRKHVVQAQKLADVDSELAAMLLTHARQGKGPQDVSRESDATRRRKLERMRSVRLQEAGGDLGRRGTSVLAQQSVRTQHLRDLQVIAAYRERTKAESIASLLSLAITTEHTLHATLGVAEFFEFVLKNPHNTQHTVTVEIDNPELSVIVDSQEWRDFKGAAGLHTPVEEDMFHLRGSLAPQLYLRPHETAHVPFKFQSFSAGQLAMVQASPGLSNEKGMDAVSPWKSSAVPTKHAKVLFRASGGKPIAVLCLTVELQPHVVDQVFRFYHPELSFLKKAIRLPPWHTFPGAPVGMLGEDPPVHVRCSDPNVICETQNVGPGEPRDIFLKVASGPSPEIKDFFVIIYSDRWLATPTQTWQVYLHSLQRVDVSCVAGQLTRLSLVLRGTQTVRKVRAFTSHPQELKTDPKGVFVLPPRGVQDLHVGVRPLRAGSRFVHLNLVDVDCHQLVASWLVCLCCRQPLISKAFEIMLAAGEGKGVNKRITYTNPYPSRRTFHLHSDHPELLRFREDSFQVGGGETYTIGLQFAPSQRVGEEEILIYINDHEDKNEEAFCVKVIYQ

[2] = target: T2, KIF3A, yeast two-hybrid construct (UniProt Q9Y496 1-699); test: direct yeast two-hybrid assay
T2 construct: The construct is not described in the methods; not shown: GAL4 domain of the two-hybrid vector; not described for this construct
T2 sequence (Q9Y496 whole entry, the tested form may be a part): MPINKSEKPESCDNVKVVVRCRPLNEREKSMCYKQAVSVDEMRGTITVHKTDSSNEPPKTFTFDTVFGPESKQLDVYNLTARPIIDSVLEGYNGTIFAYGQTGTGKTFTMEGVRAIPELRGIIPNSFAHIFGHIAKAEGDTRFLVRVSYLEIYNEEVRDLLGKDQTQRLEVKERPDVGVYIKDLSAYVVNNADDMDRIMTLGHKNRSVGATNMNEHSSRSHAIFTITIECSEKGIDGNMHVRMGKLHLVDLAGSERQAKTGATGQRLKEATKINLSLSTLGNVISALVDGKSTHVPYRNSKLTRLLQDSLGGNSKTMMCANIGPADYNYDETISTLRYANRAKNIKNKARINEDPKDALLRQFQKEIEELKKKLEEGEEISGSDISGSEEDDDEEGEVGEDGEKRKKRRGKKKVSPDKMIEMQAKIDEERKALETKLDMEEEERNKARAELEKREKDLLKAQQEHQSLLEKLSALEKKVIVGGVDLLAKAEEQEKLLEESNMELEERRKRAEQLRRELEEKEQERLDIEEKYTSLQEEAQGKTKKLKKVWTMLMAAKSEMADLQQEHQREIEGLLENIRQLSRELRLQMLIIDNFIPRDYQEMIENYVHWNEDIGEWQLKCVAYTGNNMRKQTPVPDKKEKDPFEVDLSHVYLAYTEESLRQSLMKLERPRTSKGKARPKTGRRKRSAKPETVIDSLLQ

[3] = target: calmodulin (CALM2), human full length, yeast two-hybrid fusion (human, UniProt P0DP24 1-149); test: yeast two-hybrid screen of a human fetal brain expression library, NPHP5 as bait

B1: full-length human nephrocystin-5 (NPHP5), yeast two-hybrid fusion (other, not shown: small tags and cut ends)
chain: MKPTGTDPRILSIAAEVAKSPEQNVPVILLKLKEIINITPLGSSELKKIKQDIYCYDLIQYCLLVLSQDYSRIQGGWTTISQLTQILSHCCVGLEPGEDAEEFYNELLPSAAENFLVLGRQLQTCFINAAKAEEKDELLHFFQIVTDSLFWLLGGHVELIQNVLQSDHFLHLLQADNVQIGSAVMMMLQNILQINSGDLLRIGRKALYSILDEVIFKLFSTPSPVIRSTATKLLLLMAESHQEILILLRQSTCYKGLRRLLSKQETGTEFSQELRQLVGLLSPMVYQEVEEQKLHQAACLIQAYWKGFQTRKRLKKLPSAVIALQRSFRSKRSKMLLEINRQKEEEDLKLQLQLQRQRAMRLSRELQLSMLEIVHPGQVEKHYREMEEKSALNIQKHWRGYRERKNFHQQRQSLIEYKAAVTLQRAALKFLAKCRKKKKLFAPWRGLQELTDARRVELKKRVDDYVRRHLGSPMSDVVSRELHAQAQERLQHYFMGRALEERAQQHREALIAQISTNVEQLMKAPSLKEAEGKEPELFLSRSRPVAAKAKQAHLTTLKHIQAPWWKKLGEESGDEIDVPKDELSIELENLFIGGTKPP
notes: Full-length NPHP5 cDNA (598 amino acid residues) fused to a GAL4 domain; also called KIAA0036
Q: What does the source list for B1?
A: binding result [1]: no binding; binding result [2]: no binding; binding result [3]: binds
